B1: Allatotropin probe (dsDNA)
DNA 1: CCATAGGTTTGTAGATAATTAGCGTAGCACGCTGTA
DNA 2: TACAGCGTGCTACGCTAATTATCTACAAACCTATGG
B2: JHAMT probe (dsDNA)
DNA 1: ATGGCTAATTTTTTTAATGAATTAAAAGAAC
DNA 2: GTTCTTTTAATTCATTAAAAAAATTAGCCAT
B3: Allatotropin mutant probe (dsDNA)
DNA 1: CCATAGGTTTGTAGACCCCCAGCGTAGCACGCTGTA
DNA 2: TACAGCGTGCTACGCTGGGGGTCTACAAACCTATGG
B4: FPPS2 probe (dsDNA)
DNA 1: TCGCAAGTGAAAACAATTAATTCGCAATCGGTTCA
DNA 2: TGAACCGATTGCGAATTAATTGTTTTCACTTGCGA
B5: JHAMT mutant probe (dsDNA)
DNA 1: ATGGCTAATTTTTTCCCCGAATTAAAAGAAC
DNA 2: GTTCTTTTAATTCGGGGAAAAAATTAGCCAT
B6: FPPS2 mutant probe (dsDNA)
DNA 1: TCGCAAGTGAAAACACCCCCTTCGCAATCGGTTCA
DNA 2: TGAACCGATTGCGAAGGGGGTGTTTTCACTTGCGA

Legend:
Scr (Sex combs reduced) [1] = molecular target: T1, Scr (Sex combs reduced) (Bombyx mori, UniProt Q9XZR4 1-356); assay: EMSA; dose-dependent; competed by unlabeled probe; EMSA: 0.1-1 ug protein, 5 uM labeled probe, 15 uL with 3 uL 5x binding buffer (Beyotime, composition not given), 25 C, 20 + 20 min; 5% PAGE in 1x TBE (45 mM Tris-borate, 1 mM EDTA, pH 8.3); settings: protein: recombinant; tags: His-SUMO (N-terminal, pCold-SUMO); label: 5'-Cy3; blunt
T1 sequence (Q9XZR4 entry or part of it): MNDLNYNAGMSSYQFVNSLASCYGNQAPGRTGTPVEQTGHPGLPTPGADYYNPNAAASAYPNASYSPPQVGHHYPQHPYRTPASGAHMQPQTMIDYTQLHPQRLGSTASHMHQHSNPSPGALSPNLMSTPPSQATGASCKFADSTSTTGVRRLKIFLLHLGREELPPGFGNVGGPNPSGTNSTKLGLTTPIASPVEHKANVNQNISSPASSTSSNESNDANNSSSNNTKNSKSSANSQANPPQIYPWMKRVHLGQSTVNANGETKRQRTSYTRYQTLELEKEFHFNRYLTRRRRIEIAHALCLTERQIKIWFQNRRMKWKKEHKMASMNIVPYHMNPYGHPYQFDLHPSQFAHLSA

Scr (Sex combs reduced) [2] = molecular target: T1, Scr (Sex combs reduced); assay: competition; unlabeled mutant, 5-50x, against labeled N1; EMSA: 0.1-1 ug protein, 5 uM labeled probe, 15 uL with 3 uL 5x binding buffer (Beyotime, composition not given), 25 C, 20 + 20 min; 5% PAGE in 1x TBE (45 mM Tris-borate, 1 mM EDTA, pH 8.3); settings: protein: recombinant; tags: His-SUMO (N-terminal, pCold-SUMO); label: none; blunt
Scr (Sex combs reduced) [3] = molecular target: T1, Scr (Sex combs reduced); assay: competition; unlabeled mutant, 5-50x, against labeled N5; EMSA: 0.1-1 ug protein, 5 uM labeled probe, 15 uL with 3 uL 5x binding buffer (Beyotime, composition not given), 25 C, 20 + 20 min; 5% PAGE in 1x TBE (45 mM Tris-borate, 1 mM EDTA, pH 8.3); settings: protein: recombinant; tags: His-SUMO (N-terminal, pCold-SUMO); label: none; blunt
Scr (Sex combs reduced) [4] = molecular target: T1, Scr (Sex combs reduced); assay: competition; unlabeled mutant, 5-50x, against labeled N3; EMSA: 0.1-1 ug protein, 5 uM labeled probe, 15 uL with 3 uL 5x binding buffer (Beyotime, composition not given), 25 C, 20 + 20 min; 5% PAGE in 1x TBE (45 mM Tris-borate, 1 mM EDTA, pH 8.3); settings: protein: recombinant; tags: His-SUMO (N-terminal, pCold-SUMO); label: none; blunt

| Binder | binding result (Scr (Sex combs reduced) [1]) | further results |
| --- | --- | --- |
| B1 | binds | – |
| B2 | binds | – |
| B3 | – | binding result (Scr (Sex combs reduced) [2]): no binding |
| B4 | binds | – |
| B5 | – | binding result (Scr (Sex combs reduced) [3]): no binding |
| B6 | – | binding result (Scr (Sex combs reduced) [4]): no binding |
